Experimental data taken from patent US20260258115A1 (MAPP BIOPHARMACEUTICAL, published 2026).

B1: ADI-41238 (antibody, V domains shown)
VH: EVQLLESGGGLVKPGGSLRLSCAASGFTFRDYYMSWIRQAPGKGLEWVSYISSSSSYTEYADSVKGRFTISRDNAKKSLYLQMNSLRTEDTAVYYCARVITQAGTGTTYYMDVWGKGTTVTVSS
VL: QSVLTQPPSVSGAPGQRVTISCTGSSSNIGTGYDVHWYQQLPGTAPKLLIYANNNRPSGVPDRFSGSKSGTSASLAITGLQAEDEADYYCQSYDSSLSLVFGGGTKLTVL
B2: ADI-41257 (antibody, V domains shown)
VH: QVQLVESGAEVKKPGSSVKVSCKASEGTFSSYGISWVRQAPGQGPEWMGEINPMFGTAKYAQKFQGRVTITVDESTSTADMELSSLTSEDTAVYYCAREFLGQCSETNCPTPSRHLDYWGQGTLVTVSS
VL: EIVMTQSPSSLSASVGDRVTITCRASRTISSYLNWYQQKPGKAPKLLIYATSNLQSGVPSRFSGSGSGADFTLTISSLQPEDFATYYCQQTYSTPGFGPGTKVDIK
B3: ADI-41240 (antibody, V domains shown)
VH: QVQLQQWGAGLLKPSETLSLICDVYGGSFSDYYWSWIRQSPGKGLEWIGEINHSGSTSFHPSLKSRISISIDTSNNQFSLNLSSMTAADTAVYYCARGTLRGYFDYWGQGTLVTVSS
VL: EIVLTQSPSTLSAFVGDRVTITCRASQSISRWLAWYQQKPGKAPNLLISEASSLESGVPSRFSGSGSGTEFTLTISSLQPDDLGTYYCQQYNGYLWTFGQGTKVEIK
B4: ADI-41242 (antibody, V domains shown)
VH: EVQLVESGGGVVQPGRSLRLSCAASGFPFSSYAMHWVRQAPGKGLEWVAVIWFEGNEKYFADSVEGRFTISRDNSKNTLYLQMNSLRAEDTARYYCARFYFGAFDIWGQGTLVTVSS
VL: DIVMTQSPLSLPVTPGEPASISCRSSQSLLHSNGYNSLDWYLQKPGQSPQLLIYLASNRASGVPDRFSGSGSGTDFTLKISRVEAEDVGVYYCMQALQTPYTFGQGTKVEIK
B5: ADI-41246 (antibody, V domains shown)
VH: EVQLLESGPGLVKPSETLSLTCIVSGGSISSYNWNWIRQPPGKGLEWIGYIYNSGSTNYNPSLKSRVTISVDTSKNQFSLKLSSVTAADTAVYYCARYFDYGSGGFDYWGQGTLVTVSS
VL: ETTLTQSPGTLSLSPGERATLSCRASQSVTSTYLAWYQQKPGQAPRLLIYGASSRATGIPDRFSGSGSGTDFTLTISRLEPEDFAVYYCQQFDSSLTFGGGTKVEIK
B6: ADI-41243 (antibody, V domains shown)
VH: QVQLVQSRAEVKKPGESLKISCKGSLHSFSNNWIGWVRQMPGKGLEWMGIIFPDDSDTRYSPSFQGQVTISADKSISTAYLQWSSLKASDTAIYYCGTVVTLIQGVADWGQGTLVTVSS
VL: QPVLTQPHSVSESPGKTVTISCTRSSGSIDSSYVQWYQQRPGSSPTTVIYEDNLRPSGVPDRFSGSIDSSSNSASLTISGLKTEDEAEYYCQSYDSSNPVVFGGGTKLTVL
B7: ADI-41241 (antibody, V domains shown)
VH: QVQLVQSGAEVKKPGASVQVSCKASGYTFTGDYMHWVRQAPGQGLEWMGRINPNSGGTNYAQKFQGRVTMTRDTSISTAYMELSRLRSDDTAVYYCARAAAEYSSSSPTSYYYMDVWGKGTTVTVSS
VL: EIQMTQSPSSLSASVGDRVTITCRASQNIYSFLNWYQQKPGKAPKLLIYAASSLQSGVPSRFSGSGSATDFTLTISSLQPEDFATYYCQQSYSPPQITFGQGTKVDIK
B8: ADI-41247 (antibody, V domains shown)
VH: QVQLVQSGAEVKKPGASLQVSCKASGYTFTDSYFHWVRQAPGQGLEWMGRISPHSGGTNYAQKFQGRVTMTRDTSISTAYLELSRLRSDDTAVYYCATEGPRGPFRFDPWGQGTLVTVSS
VL: NFMLTQPHSVSESPGKTVTISCTRSSGSIASNYVQWYQQRPGSSPTTVIYEDNQRPSGVPDRFSGSIDSSSNSASLTISGLMTEDEADYYCQSYDSSNWVFGGGTKLTVL
B9: ADI-41259 (antibody, V domains shown)
VH: QVQLVESGGRLVKPGGSLRLSCAASGFTFSDFYMSWIRQAPGKGLEWVSYISSSGDDPNYADSVKGRFTISRDNSKNSLYLQMNSLRAEDTAVYYCARDEVGWNNLDYYFGMDVWGQGTTVTVSS
VL: DIVMTQSPLSLPVTLGQPASISCRSSQSLVHSDGNTYLSWFHQRPGQSPRRLIYKVSNRDSGVPNRFSGGGSGTDFTLKISRVEAEDVGFFYCMQGTHWQKTFGQGTKVEIK
B10: ADI-41249 (antibody, V domains shown)
VH: QVQLVQSGAEVKKPGESLKISCQVSRDTSTTYWIGWVRQMPGKGLEWMGIIFPGDSDTRYSPSFQGQVTISADKSIMTAYLQLTSLKASDTAMYYCATQALRGAFDIWGQGTMVTVSS
VL: DIRLTQSPSSLSASVGDRVTITCQASQDISNYLNWYQQKPGKAPKLLIYDASYLETGVPSRFSGSGSGTDFTFTISSLQPEDFATYYCQQYDDLLFTFGPGTKLEIK
B11: ADI-41245 (antibody, V domains shown)
VH: QVQLVESGGGLVKPGGSLRLSCAASGFSFSAYYMSWIRQAPGKGLEWISNISGGSSYANYADSVEGRFTISRDNAKNSLYLQMNSLRAEDTAVYYCAREFQTYYYMDVWGKGTTVTVSS
VL: QPVLTQPPSVSGAPGQRVTISCTGSSSNIGAGYEVHWYQQLPGTAPKLLIYGNNNRPSGVPDRFSGSKSGTSASLAITGLQAEDEADYYCQSYDSSLSGSVFGGGTKLTVL
B12: ADI-41251 (antibody, V domains shown)
VH: EVQLVESGGGLVKPGGSLRLSCAASGFTFSDYYMTWIRQAPGKGLEWVSNISGGSSYTNYADSVKGRFTISRDNAKNSVYLQMNSLRAEDTAVYYCARVGCSGGVCNFFLDYWGQGTLVTVSS
VL: QSVLTQPPSVSGAPGQRVTISCTGSSSNIGAGYDVHWYQQLPGTAPKLLIYDNTNRPSGVPDRFSGSKSGTSASLAITGLQAEDEADYYCQSYDSSLSGYVFGTGTKVTVL
B13: ADI-41253 (antibody, V domains shown)
VH: EVQLVQSGPGLVKPSETLSLTCTVSGDSISSSDYSYYWGWIRQPPGKGLEWIASLSYSGKTYSQSSLKSRVIISVDTSKKQFSLKLSSVTAADTAVYYCAVTRCYVCTSEGDSFDMWGQGTMVTVSS
VL: DIVLTQTPGTLSLSPGERATLSCRASQSISGNYLAWYQHKPGQAPRLLIYGASTRATGIPDRFSGSGSGTDFPLTISRLEPEDFAVYYCQQYATSPYTFGQGTKVDIK
B14: ADI-41256 (antibody, V domains shown)
VH: QVQLVQSGAEVKSPGSSATVSCKASGGTFGSYGISWVRQAPGQGLEWIGAIMPMFGTTNYAQKFQGRVTMTADESTSTVYMDVSSLRPDDTAVYYCVRDVFYDILTGYYDADYYHHYMDVWGKGTTVTVSS
VL: DIVMTQSPLSLPVTLGQPASISCRSGQSLVHSDGNTYLNWFQQRPGQSPRRLIYKVSNRGSGVPDRFSGSGSGTDFTLKISRVEAEDVGVYFCMQGTHWPRTFGQGTKVDIK
B15: ADI-41255 (antibody, V domains shown)
VH: EVQLVESGGGLVQPGGSLRISCAASGLTFSSYAMSWVRQAPGQGLEWVSSVSGSGVSTYYADSVKGRFTISRDNSKNTLYLQMNSLRAEDTAVYYCAKEDYYHFYMDVWGNGTTVTVSS
VL: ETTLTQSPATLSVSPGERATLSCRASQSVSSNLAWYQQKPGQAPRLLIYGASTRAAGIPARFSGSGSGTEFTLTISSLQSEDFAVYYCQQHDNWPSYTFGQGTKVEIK
B16: ADI-41239 (antibody, V domains shown)
VH: QITLKESGPTLVKPTQTLTLTCTFSGFSLTTTGVGVGWIRQPPGKALEWLALIYWDDDKRYSPSLKNRITITKDTSKKQVVLTMTNMDPADTATYYCAHISTVVTYDSSGSYYVLINWFDPWGQGTLVTVSS
VL: not shown
B17: ADI-41252 (antibody, V domains shown)
VH: EVQLVQSGAEVKKPGESLKISCMGSGYNFPNYWIGWVRQMSGKGLEWMGIIYPDDSDTTYSPSFQGQVIFSADKSISTAYLQWSSLKASDTAMYFCVRLDKTTQIDFWGQGTLVTVSS
VL: EIVLTQSPSSLSASVGDRVTITCQASQDISNYLNWYQQKPGKAPKLLIYDVSNLETGVPSRFSGSGSGTDFTFTISSLQPEDIATYYCQQHDNLPLTFGQGTRLEIK
B18: ADI-41254 (antibody, V domains shown)
VH: EVQLVESGGGLVQSGGSLRLSCAASGFTFSSYEMNWVRQAPGKGLEWVSYTTNNGRTIYYADSVKGRFTISRDNAKNSLFLQMNGLRAEDTAVYYCARGIQFSRVDYAMDVWGQGTTVTVSS
VL: SYELTQPPSVSGTPGQRITISCSGSSSNIASNTVNWYQHLPGTAPKLLIYSDNQRPSGVPDRFSGSKSGTSASLAISGLQSEDEADYYCAIWDDSLNASYVFGTGTKLTVL
B19: ADI-41258 (antibody, V domains shown)
VH: QVQLVQSGGGLVQRGGSLRLSCAASGFSFRSYAMSWVRQAPGKGLEWVSSISDSGDNTFYADSVKGRFSISRDNSRDTLYLQMNSLRAEDTAVYYCARGGYCSGGNCFPFDYWGQGTLVTVSS
VL: SYELMQLPSVSVSPGQTARITCSGDALPKQYGYWYQQKPGQAPVLVIYKDSERPSGIPERFSGSSSGTTVTLTISGVQAEDEADYYCQSADSGGTYVMFGGGTKLTVL
B20: ADI-41244 (antibody, V domains shown)
VH: QVTLKESGGGLIQPGGSLRLSCAVSGFTVSSKYMSWVRQAPGKGLEWVSVIYGGGSTYYTDSVKGRFTISRDNSNNTLYLQMNSLRAEDTAIYYCAREARSYNYDYVGNDAFDIWGQGTTVTVSS
VL: DIVLTQTPDSLAVSLGERATINCKSSQSVLNNFNNKNYLAWYQQKPGQPPKLLIYWASTRESGVPDRFSGSGSGTDFTLTITSLQAEDVAIYYCQQYYRTPPYTFGQGTKVDIK
B21: ADI-41248 (antibody, V domains shown)
VH: QVQLVQSGGGVVQPGRSLRLSCAASGFTFSSYSMHWVRQAPGKGLEWMAVCWYDGSNIYYADSVKGRFTISRDNSKNTVYLQMNSLRAEDTAVYYCARDDRYCSGGTCLSAFDIWGQGTMVTVSS
VL: ETTLTQSPSSLSASVGDRVTITCRASQSISSYLNWYQQKPGRAPKLLIYTTSSLQSGVSSRFSGSGSGTDFTLTINSLQPEDFATYYCQQSYSTPNTFGQGTKVEIK
B22: ADI-41250 (antibody, V domains shown)
VH: QVQLQQWGAGLLKPSETLSLTCAVSGESLTGYFWSWIRQPPGKGLEWIGEVSHSGSTNYNPSLKSRVTMSVDTSKTQFSLKLNSVTAADTAVYYCARGYDYWSGTARYFDYWGQGILVTVSS
VL: QPVLTQPASVSGSPGQSITISCTGTSSDVGGYNYVSWYQQHPGKAPKLMIYDVSNRPSGVSSRFSGSKSGNTASLTISGLQAEDEGDYYCSSYRSSTTSRVFGGGTKVTVL

Each binder was assayed against RSV F on RSV-A2 virus (Respiratory syncytial virus (RSV-A2)) (assay: cell-based or functional assay).
With B1 the “Neutralization IC50 (RSV subtype A)” value was 0.13 µg/mL. In the case of B2, the “Neutralization IC50 (RSV subtype A)” value is reported as > 25 µg/mL. B3 was tested, and the “Neutralization IC50 (RSV subtype A)” value was > 25 µg/mL. In the case of B4, the “Neutralization IC50 (RSV subtype A)” value is reported as > 25 µg/mL. With B5 the “Neutralization IC50 (RSV subtype A)” value was > 25 µg/mL. B6 was tested, and the “Neutralization IC50 (RSV subtype A)” value was > 25 µg/mL. In the case of B7, the “Neutralization IC50 (RSV subtype A)” value is reported as 18.8 µg/mL. In the case of B8, the “Neutralization IC50 (RSV subtype A)” value is reported as > 25 µg/mL. B9 was tested, and the “Neutralization IC50 (RSV subtype A)” value was 0.02 µg/mL. In the case of B10, the “Neutralization IC50 (RSV subtype A)” value is reported as 0.01 µg/mL. In the case of B11, the “Neutralization IC50 (RSV subtype A)” value is reported as 0.71 µg/mL. B12 was tested, and the “Neutralization IC50 (RSV subtype A)” value was 0.11 µg/mL. With B13 the “Neutralization IC50 (RSV subtype A)” value was 0.03 µg/mL. For B14, the “Neutralization IC50 (RSV subtype A)” value was 0.02 µg/mL. For B15, the “Neutralization IC50 (RSV subtype A)” value was > 25 µg/mL. For B16, the “Neutralization IC50 (RSV subtype A)” value was > 25 µg/mL. For B17, the “Neutralization IC50 (RSV subtype A)” value was > 25 µg/mL. With B18 the “Neutralization IC50 (RSV subtype A)” value was > 25 µg/mL. B19 was tested, and the “Neutralization IC50 (RSV subtype A)” value was > 25 µg/mL. B20 was tested, and the “Neutralization IC50 (RSV subtype A)” value was > 25 µg/mL. In the case of B21, the “Neutralization IC50 (RSV subtype A)” value is reported as > 25 µg/mL. For B22, the “Neutralization IC50 (RSV subtype A)” value was > 25 µg/mL.
